The target of assay [1] is T1, human serum albumin (human, UniProt P02768 25-609).
T1 construct: Analyte in SPR, titrated 50-6.25 nM; also called HSA
Nature of the assay: SPR, BIAcore T100; construct captured; HSA 50-6.25 nM as analyte; 1:1 model. Here is the method:
(§1) Single linker Fab-dsFv samples were captured to the sensor chip surface using either a human F(ab′)₂-specific goat Fab (Jackson ImmunoResearch, 109-006-097) or an in-house generated anti human CH1 monoclonal antibody. Covalent immobilisation of the capture antibody was achieved by standard amine coupling chemistry.
(§2) For kinetic assays, either a titration of human serum albumin 50-6.25 nM, or a single concentration of OX40 of 25 nM was performed. A blank flow-cell was used for reference subtraction and buffer-blank injections were included to subtract instrument noise and drift.
(§3) Kinetic parameters were determined by simultaneous global-fitting of the resulting sensorgrams to a standard 1:1 binding model using BIAcore T100 Evaluation software.
On the technique in general: SPR reads the build-up and loss of mass on a sensor chip optically.

Assay [2] addresses T1, human serum albumin. In words: SPR, BIAcore T100; construct captured by anti-human F(ab')2 Fab or anti-CH1 mAb; HSA 50-6.25 nM as analyte; 1:1 model. Here is the method:
as §1, §2, §3

Assay [3] has as its target T1, human serum albumin. In words: SPR, BIAcore T100; construct captured; HSA 50-6.25 nM as analyte; 1:1 model; repeat at end of run. Here is the method: as §1, §2, §3
In assay [4] the target is T1, human serum albumin. In words: SPR, BIAcore T100; construct captured; HSA 50-6.25 nM as analyte; 1:1 model; plasmid ratio 1:1:2. Here is the method: as §1, §2, §3
Assay [5] has as its target T1, human serum albumin. Nature of the assay: SPR, BIAcore T100; construct captured; HSA 50-6.25 nM as analyte; 1:1 model; plasmid ratio 1:1:1. As to the method: as §1, §2, §3
Assay [6] has as its target T1, human serum albumin. In words: SPR, BIAcore T100; construct captured; HSA 50-6.25 nM as analyte; 1:1 model; plasmid ratio printed 1:1:1 (second such row). Here is the method: as §1, §2, §3
The target in assay [7] is T1, human serum albumin. In words: SPR, BIAcore T100; construct captured; HSA 50-6.25 nM as analyte; 1:1 model; plasmid ratio 2:1:2. As to the method:
as §1, §2, §3

By Kd is commonly meant the constant that tells how readily two partners part at equilibrium. For orientation: koff means the rate constant with which the complex falls apart. Usually kon stands for the second-order rate constant of association.

B1: A26Fab-645dsscFv (HC-scFv) (bispecific antibody)
heavy: EVQLVESGGGLVQPGGSLRLSCAASGFTFTNYGIHWIRQAPGKGLEWVASISPSGGLTYYRDSVKGRFTISRDDAKNSPYLQMNSLRAEDTAVYYCATGGEGIFDYWGQGTLVTVSSASTKGPSVFPLAPSSKSTSGGTAALGCLVKDYFPEPVTVSWNSGALTSGVHTFPAVLQSSGLYSLSSVVTVPSSSLGTQTYICNVNHKPSNTKVDKKVEPKSCSGGGGTGGGGSEVQLLESGGGLVQPGGSLRLSCAVSGIDLSNYAINWVRQAPGKCLEWIGIIWASGTTFYATWAKGRFTISRDNSKNTVYLQMNSLRAEDTAVYYCARTVPGYSTAPYFDLWGQGTLVTVSSGGGGSGGGGSGGGGSGGGGSDIQMTQSPSSVSASVGDRVTITCQSSPSVWSNFLSWYQQKPGKAPKLLIYEASKLTSGVPSRFSGSGSGTDFTLTISSLQPEDFATYYCGGGYSSISDTTFGCGTKVEIKRT
light: DIQMTQSPSSLSASVGDRVTITCRATQSIYNALAWYQQKPGKAPKLLIYNANTLHTGVPSRFSASGSGTDSTLTISSLQPEDFATYYCQQYYDYPLTFGGGTKVEIKRTVAAPSVFIFPPSDEQLKSGTASVVCLLNNFYPREAKVQWKVDNALQSGNSQESVTEQDSKDSTYSLSSTLTLSKADYEKHKVYACEVTHQGLSSPVTKSFNRGEC
notes: To be checked by chain lengths; also called Fab-dsscFv (HC-scFv)
For the molecule B1, in the assay with human serum albumin [1], the dissociation constant (Kd) is 1.31 nM, the off-rate (koff) was found to be 0.00024 s⁻¹ and the kon came out at 183000 M⁻¹ s⁻¹.

B2: A26Fab-645dsscFv (LC-scFv) (bispecific antibody)
heavy: EVQLVESGGGLVQPGGSLRLSCAASGFTFTNYGIHWIRQAPGKGLEWVASISPSGGLTYYRDSVKGRFTISRDDAKNSPYLQMNSLRAEDTAVYYCATGGEGIFDYWGQGTLVTVSSASTKGPSVFPLAPSSKSTSGGTAALGCLVKDYFPEPVTVSWNSGALTSGVHTFPAVLQSSGLYSLSSVVTVPSSSLGTQTYICNVNHKPSNTKVDKKVEPKSC
light: DIQMTQSPSSLSASVGDRVTITCRATQSIYNALAWYQQKPGKAPKLLIYNANTLHTGVPSRFSASGSGTDSTLTISSLQPEDFATYYCQQYYDYPLTFGGGTKVEIKRTVAAPSVFIFPPSDEQLKSGTASVVCLLNNFYPREAKVQWKVDNALQSGNSQESVTEQDSKDSTYSLSSTLTLSKADYEKHKVYACEVTHQGLSSPVTKSFNRGECSGGGGSGGGGSEVQLLESGGGLVQPGGSLRLSCAVSGIDLSNYAINWVRQAPGKCLEWIGIIWASGTTFYATWAKGRFTISRDNSKNTVYLQMNSLRAEDTAVYYCARTVPGYSTAPYFDLWGQGTLVTVSSGGGGSGGGGSGGGGSGGGGSDIQMTQSPSSVSASVGDRVTITCQSSPSVWSNFLSWYQQKPGKAPKLLIYEASKLTSGVPSRFSGSGSGTDFTLTISSLQPEDFATYYCGGGYSSISDTTFGCGTKVEIKRT
notes: To be checked by chain lengths; also called Fab-dsscFv (LC-scFv)
In the assay with human serum albumin [1], B2 showed a Kd of 1.29 nM, a koff of 0.000222 s⁻¹ and an on-rate constant (kon) of 172000 M⁻¹ s⁻¹.

B3: A26Fab-645dsFv (bispecific antibody)
heavy: EVQLVESGGGLVQPGGSLRLSCAASGFTFTNYGIHWIRQAPGKGLEWVASISPSGGLTYYRDSVKGRFTISRDDAKNSPYLQMNSLRAEDTAVYYCATGGEGIFDYWGQGTLVTVSSASTKGPSVFPLAPSSKSTSGGTAALGCLVKDYFPEPVTVSWNSGALTSGVHTFPAVLQSSGLYSLSSVVTVPSSSLGTQTYICNVNHKPSNTKVDKKVEPKSCSGGGGSGGGGTGGGGSEVQLLESGGGLVQPGGSLRLSCAVSGIDLSNYAINWVRQAPGKCLEWIGIIWASGTTFYATWAKGRFTISRDNSKNTVYLQMNSLRAEDTAVYYCARTVPGYSTAPYFDLWGQGTLVTVSS
light: DIQMTQSPSSLSASVGDRVTITCRATQSIYNALAWYQQKPGKAPKLLIYNANTLHTGVPSRFSASGSGTDSTLTISSLQPEDFATYYCQQYYDYPLTFGGGTKVEIKRTVAAPSVFIFPPSDEQLKSGTASVVCLLNNFYPREAKVQWKVDNALQSGNSQESVTEQDSKDSTYSLSSTLTLSKADYEKHKVYACEVTHQGLSSPVTKSFNRGECSGGGGSGGGGSGGGGSDIQMTQSPSSVSASVGDRVTITCQSSPSVWSNFLSWYQQKPGKAPKLLIYEASKLTSGVPSRFSGSGSGTDFTLTISSLQPEDFATYYCGGGYSSISDTTFGCGTKVEIKRT
notes: Expressed in HEK293; tested as supernatant; also called Fab-dsFv; A26Fab-645dsFv (start)
In the assay with human serum albumin [2], B3 showed a Kd of 2.01 nM, an off-rate (koff) of 0.000151 s⁻¹ and a kon of 75100 M⁻¹ s⁻¹. In addition, in the assay with human serum albumin [3], the affinity, expressed as Kd, was 3.11 nM; the koff was 0.000212 s⁻¹; the kon came to 68200 M⁻¹ s⁻¹.

B4: Single linker A26Fab-645dsFv (LC-vL linked) (bispecific antibody)
heavy: B2 heavy
light: B3 light
VH: EVQLLESGGGLVQPGGSLRLSCAVSGIDLSNYAINWVRQAPGKCLEWIGIIWASGTTFYATWAKGRFTISRDNSKNTVYLQMNSLRAEDTAVYYCARTVPGYSTAPYFDLWGQGTLVTVSS
notes: Three polypeptides; the free 645dsvH is held to the linked 645dsvL by the disulphide G44C (vH) / G100C (vL); all are the same molecule; also called single linker Fab-dsFv (LC-vL)
Take B4: the Kd in the assay with human serum albumin [4] came to 2.31 nM; with human serum albumin [5], 3.17 nM; with human serum albumin [6] it was 2.46 nM; with human serum albumin [7], 1.49 nM. Moreover, the koff with human serum albumin [4] came out at 0.000262 s⁻¹; with human serum albumin [5], 0.000235 s⁻¹; in the assay with human serum albumin [6], 0.000223 s⁻¹; with human serum albumin [7] it was 0.000188 s⁻¹. The on-rate (kon) is 113000 M⁻¹ s⁻¹ with human serum albumin [4], 74000 M⁻¹ s⁻¹ with human serum albumin [5], 91000 M⁻¹ s⁻¹ with human serum albumin [6] and 126000 M⁻¹ s⁻¹ in the assay with human serum albumin [7].

B5: Single linker A26Fab-645dsFv (HC-vH linked) (bispecific antibody)
heavy: B3 heavy
light: B1 light
VL: DIQMTQSPSSVSASVGDRVTITCQSSPSVWSNFLSWYQQKPGKAPKLLIYEASKLTSGVPSRFSGSGSGTDFTLTISSLQPEDFATYYCGGGYSSISDTTFGCGTKVEIKRT
notes: Three polypeptides; the free 645dsvL is held to the linked 645dsvH by the disulphide G44C (vH) / G100C (vL); all are the same molecule; also called single linker Fab-dsFv (HC-vH)
As for B5, in the assay with human serum albumin [4], the Kd turned out to be 1.11 nM, the koff turned out to be 0.000234 s⁻¹ and the kon turned out to be 211000 M⁻¹ s⁻¹. In the assay with human serum albumin [5], the dissociation constant (Kd) is 1 nM, the off-rate constant (koff) was found to be 0.000209 s⁻¹ and the kon worked out at 209000 M⁻¹ s⁻¹. Besides, in the assay with human serum albumin [7], the equilibrium dissociation constant (Kd) came to 1.05 nM, the dissociation rate constant (koff) came out at 0.000207 s⁻¹ and the kon came out at 197000 M⁻¹ s⁻¹.

These data come from patent US20200055959A1 (UCB, published 2020).
